Measurements taken from article PMC4889959 (Nucleic Acids Research, 2016).

B1: SLX4BTB wild type, yeast two-hybrid fusion [human] / SLX4BTB wild type, yeast two-hybrid fusion [human] (parent)
chain 1: QDKHPDRGGRTLLSLGLLVADFGAMVNNPHLSDVQFQTDSGEVLYAHKFVLYARCPLLIQYVNNEGFSAVEDGVLTQRVLLGDVSTEAARTFLHYLYTADTGLPPGLSSELSSLAHRFGVSELVHLCEQVPIATDS
chain 2: B1 chain 1

Variants of: B1
Experiment: yeast two-hybrid β-galactosidase assay
Conditions: with SLX4BTB wild type, ONPG as substrate, SLX4BTB-F681R-F708R-AD + SLX4BTB-BD, parent: 710, read off a plot

Row | response (OD420 reading) | Variant
1 | 5 | chain 1 F22R F49R

Same assay, conditions: with SLX4BTB wild type, ONPG as substrate, SLX4BTB-F708R-AD + SLX4BTB-BD, parent: 710, read off a plot

Row | response (OD420 reading) | Variant
2 | 5.5 | chain 1 F49R
